Several values for one entry are separate records, joined by “and”; a condition that tells them apart may be missing. Identical values can stand only once. Like-named read-outs stand apart in the source and are kept apart here.

The chains are these.
B1: PpsR (full-length) (natural protein, Rhodobacter sphaeroides, UniProt Q3J179 1-464, looked up)
chain: MLAGGSLPSLAPDLVRDLIATAADISLLVSQEGVVREVMANPHHPSFGQLSEWEGRPLEEVLTAESVAKFRLRSEGLEPGRGSVAVELNHIDPRSFEFPIRYILHRLPADRSILMLGRDLRPIAEVQQQLVAAQLAMERDYETQREMETRYRVVLDVSRDPMVLVSMSTGRIVDLNSAAGLLLGGVRQDLLGAAIAQEFEGRRRGEFMETMTNLAATESAAPVEVLARRSQKRLLVVPRVFRAAGERLLLCQIDPADATQPVGDELSENLARLYHEGVDGIVFSDADGTIRGANEAFLNMTDSSSLAAIRGRSIADFLARGSVDLRVLIDSVRRTGQLRLYATRLTTDFAGQIAAEISATWLDDRERPLLVLVVRDTSRADTMRRPVPATGVIDEPARNVMELVGNSTLKDIVAETTDVVEKMCIETALELTRNNRVAAAEMLSLSRQSLYVKLRKFGLLNKDE

The series “MST” deals with the molecule itself. As to the kind of experiment: MST.
The series “crystal structure” deals with the molecule itself. Put plainly: crystal structure.
Series [1] deals with B1. Put plainly: MST.
For series [2], the target named is B1. Put plainly: native gel or EMSA.
Series [3] concerns the target B1. Put plainly: native gel or EMSA. This is another data set of the same source. A general note: A gel shift assay detects complexes by their altered migration in electrophoresis.
In series [4] the target is B1. Put plainly: HDX-MS.

As usually defined, the Kd is the concentration at which binding is half-saturated. In the series “MST”, B1 showed a Kd of 0.9 µM.

B2: PpsR ΔHTH (domain or fragment, Rhodobacter sphaeroides)
chain: LAGGSLPSLAPDLVRDLIATAADISLLVSQEGVVREVMANPHHPSFGQLSEWEGRPLEEVLTAESVAKFRLRSEGLEPGRGSVAVELNHIDPRSFEFPIRYILHRLPADRSILMLGRDLRPIAEVQQQLVAAQLAMERDYETQREMETRYRVVLDVSRDPMVLVSMSTGRIVDLNSAAGLLLGGVRQDLLGAAIAQEFEGRRRGEFMETMTNLAATESAAPVEVLARRSQKRLLVVPRVFRAAGERLLLCQIDPADATQPVGDELSENLARLYHEGVDGIVFSDADGTIRGANEAFLNMTDSSSLAAIRGRSIADFLARGSVDLRVLIDSVRRTGQLRLYATRLTTDFAGQIAAEISATWLDDRERPLLVLVVRDTSR
For orientation: stoichiometry N means a count of units in the complex or per binding partner. With B2, in “crystal structure”, the “stoichiometry N” value was 4 and 8.

B3: AppA Δ399 C20S (domain or fragment, Rhodobacter sphaeroides)
chain: HDLEADVTMTGSDLVSCSYRSLAAPDLTLRDLLDIVETSQAHNARAQLTGALFYSQGVFFQWLEGRPAAVAEVMTHIQRDRRHSNVEILAEEPIAKRRFAGWHMQLSCSEADMRSLGLAESRQIVTVGRSLVADNTNIFSFDRIAAVRRFLSDVCAARTLAPDTPVEADTFALYALTEAQAGRSGRAKAVARLSDLLSTDPLGRLTEVEELLRAHAPTAADFARLFEACAERLTRALAEDRISRMQVTLAYSALQMALRRIHHLPDPQKSVGAVLVAGVPGHKPILEAALAAEMLRAVGWSTSVVHPESVAALAARLKTSRTSTLVVAPSLLEGTEQEADTLRFVSALRARTDLPGLSILVGGRLAQLPPSKLKDSGADAGFAHLALLPAALARVA
As usually defined, the EC50 is the concentration needed to bring the measured effect to its halfway point. Consider B3, for which the Kd with PpsR (full-length) [1] was 1.3 µM; in the series with PpsR (full-length) [4], approximately 1.5 µM. For the same molecule, the half-maximal effective concentration (EC50) came to 1.4 µM in the series with PpsR (full-length) [2] and 2.3 µM in the series with PpsR (full-length) [3].

For the origin of these results see PMC3702404 (Nature structural & molecular biology, 2013).
